US20050196404A1

Key:
[1] = target: HLA-E SCD (HLA-E single chain dimer) (human); experiment: flow cytometry, stably transfected LLC-PK1 cells
[2] = target: E-Cw*03 SCT (HLA-E single chain trimer with the peptide …) (human); experiment: flow cytometry, stably transfected LLC-PK1 cells
[3] = target: E-Cw*03 SCT (HLA-E single chain trimer with the peptide …) (human); experiment: flow cytometry, sorted E-Cw*03 SCT LLC-PK1 stable transfectants
[4] = target: E-hsp60 SCT (HLA-E SCT harboring the hsp60-derived peptide …) (human); experiment: flow cytometry, stably transfected LLC-PK1 cells

## HLA-E-specific mAb 3D12 (antibody)
[1]
  mean fluorescent intensity (MFI): 62 MFI
[2]
  mean fluorescent intensity (MFI): 375 MFI
[3]
  percent of cells stained: 100%

## HLA-E-specific mAb MEM-E/6 (antibody)
[4]
  fold less staining than E-Cw*03 SCT: 4 to 5 fold
